{
  "source": "IntAct's records for PubMed 34948388",
  "parents": {"B1": {"name": "Multifunctional methyltransferase subunit TRM112-like protein (Homo sapiens), Q9UI30 (parent)", "chain": "MKLLTHNLLSSHVRGVGSRGFPLRLQATEVRICPVEFNPNFVARMIPKVEWSAFLEAADNLRLIQVPKGPVEGYEENEEFLRTMHHLLLEVEVIEGTLQCPESGRMFPISRGIPNMLLSEEETES", "partner": "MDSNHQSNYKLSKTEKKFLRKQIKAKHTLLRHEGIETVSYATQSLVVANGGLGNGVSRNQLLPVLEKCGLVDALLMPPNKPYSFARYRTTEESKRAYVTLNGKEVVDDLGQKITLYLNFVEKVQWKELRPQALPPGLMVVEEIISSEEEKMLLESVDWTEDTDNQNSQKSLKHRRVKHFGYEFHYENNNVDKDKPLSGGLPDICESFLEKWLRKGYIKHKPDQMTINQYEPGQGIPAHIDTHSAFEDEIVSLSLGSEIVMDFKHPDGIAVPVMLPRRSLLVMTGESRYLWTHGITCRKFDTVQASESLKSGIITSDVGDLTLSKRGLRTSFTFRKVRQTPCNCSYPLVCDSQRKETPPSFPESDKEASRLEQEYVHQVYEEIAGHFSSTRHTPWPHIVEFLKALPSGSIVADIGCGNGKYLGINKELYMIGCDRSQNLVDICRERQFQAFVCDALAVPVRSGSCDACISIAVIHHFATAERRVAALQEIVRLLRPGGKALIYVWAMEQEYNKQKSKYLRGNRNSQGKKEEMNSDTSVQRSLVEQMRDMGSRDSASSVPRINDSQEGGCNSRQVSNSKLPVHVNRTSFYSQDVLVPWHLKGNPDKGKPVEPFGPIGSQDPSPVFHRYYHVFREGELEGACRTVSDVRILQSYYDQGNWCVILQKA"}, "B2": {"name": "Multifunctional methyltransferase subunit TRM112-like protein (Homo sapiens), Q9UI30 (parent)", "chain": "B1 chain", "partner": "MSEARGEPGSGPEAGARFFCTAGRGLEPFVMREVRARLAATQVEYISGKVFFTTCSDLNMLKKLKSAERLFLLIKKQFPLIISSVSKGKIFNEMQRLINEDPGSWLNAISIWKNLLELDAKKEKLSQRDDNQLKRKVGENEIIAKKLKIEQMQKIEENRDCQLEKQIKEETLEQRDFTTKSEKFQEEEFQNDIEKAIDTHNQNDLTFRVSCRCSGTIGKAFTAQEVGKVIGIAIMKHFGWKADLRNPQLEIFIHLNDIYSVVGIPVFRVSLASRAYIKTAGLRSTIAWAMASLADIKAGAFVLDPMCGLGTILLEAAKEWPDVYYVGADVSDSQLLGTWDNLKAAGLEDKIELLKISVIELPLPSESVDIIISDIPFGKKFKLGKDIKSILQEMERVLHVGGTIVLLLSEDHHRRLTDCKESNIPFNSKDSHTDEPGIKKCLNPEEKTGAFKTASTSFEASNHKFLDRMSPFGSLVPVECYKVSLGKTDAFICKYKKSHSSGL"}},
  "data": [
    {"variants_of": "B1", "details": "with alkb8_human ALKBH8, Q96BT7", "values": [
      {"variant": "MKLLTHNLLSSHVRGVGSRGFPLRLQATEVRICPVEFNPNFVARAIPKVEWSAFLEAADNLRLIQVPKGPVEGYEENEEFLRTMHHLLLEVEVIEGTLQCPESGRMFPISRGIPNMLLSEEETES", "note": "[M45A]", "effect of a mutation on the interaction": "disrupting interaction strength"},
      {"variant": "MKLLTHNLLFSHVRGVGSRGFPLRLQATEVRICPVEFNPNFVARMIPKVEWSAFLEAADNLRLIQVPKGPVEGYEENEEFLRTMHHLLLEVEVIEGTLQCPESGRMFPISRGIPNMLLSEEETES", "note": "[S10F]", "effect of a mutation on the interaction": "with no effect"},
      {"variant": "MKLLTHNLLSSHVRGVGSRGFPLRLQATEVRICPVEFNPNFVARMIPKVEWSAFLEAADNLRLIQVPKGPVEGYEENEEFLRTMHHLLLEVEVIEGTLQCPESGRMFPISRGAPNMLLSEEETES", "note": "[I113A]", "effect of a mutation on the interaction": "with no effect"},
      {"variant": "MKLLTHNLLSSHVRGVGSRGFPLRLQATEVRICPVEFNPNFVARMIPAVEWSAFLEAADNLRLIQVPKGPVEGYEENEEFLRTMHHLLLEVEVIEGTLQCPESGRMFPISRGIPNMLLSEEETES", "note": "[K48A]", "effect of a mutation on the interaction": "with no effect"},
      {"variant": "MKLLAHNLLSSHVRGVGSRGFPLRLQATEVRICPVEFNPNFVARMIPKVEWSAFLEAADNLRLIQVPKGPVEGYEENEEFLRTMHHLLLEVEVIEGTLQCPESGRMFPISRGIPNMLLSEEETES", "note": "[T5A]", "effect of a mutation on the interaction": "disrupting interaction strength"},
      {"variant": "MKLLTHNLLSSHVRGVGSRGFPLRLQATEVRICPVEFNPNFVARMIPAVEWSAFLEAADNLRLIQVPKGPVEGYEENEEFLRTMHHLLLEVAVIEGTLQCPESGRMFPISRGIPNMLLSEEETES", "note": "[K48A;E92A]", "effect of a mutation on the interaction": "disrupting interaction strength"},
      {"variant": "MKLLTHNLLSSHVRGVGSRGFPLRLQATEVRICPVEFNPNFVARMIPKVAWSAFLEAADNLRLIQVPKGPVEGYEENEEFLRTMHHLLLEVEVIEGTLQCPESGRMFPISRGIPNMLLSEEETES", "note": "[E50A]", "effect of a mutation on the interaction": "with no effect"},
      {"variant": "MKLLTHNLLSSHVRGVGSRGFPLRLQATEVRICPVEFNPNFVARMIPKVEWSAFLEAADNLRLIQVPKGPVEGYEENEEFLRTMHHLLLEVAVIEGTLQCPESGRMFPISRGIPNMLLSEEETES", "note": "[E92A]", "effect of a mutation on the interaction": "decreasing interaction strength"},
      {"variant": "MKLLTHNWLSSHVRGVGSRGFPLRLQATEVRICPVEFNPNFVARMIPKVEWSAFLEAADNLRLIQVPKGPVEGYEENEEFLRTMHHLLLEVEVIEGTLQCPESGRMFPISRGIPNMLLSEEETES", "note": "[L8W]", "effect of a mutation on the interaction": "with no effect"},
      {"variant": "MKLLTHNLLSSHVRGVGSRGFPLRLQATEVRICPVEFNPNFVARMIPKVEWSAFLEAADNLRLIQVPKGPVEGYEENEEFLRTMHHLLLEVEVIEGTLQCPESGRMAPISRGIPNMLLSEEETES", "note": "[F107A]", "effect of a mutation on the interaction": "decreasing interaction strength"}
    ]},
    {"variants_of": "B2", "details": "with thum2_human THUMPD2, Q9BTF0", "values": [
      {"variant": "MKLLTHNLLSSHVRGVGSRGFPLRLQATEVRICPVEFNPNFVARMIPKVEWSAFLEAADNLRLIQVPKGPVEGYEENEEFLRTMHHLLLEVEVIEGTLQCPESGRMFPISRGAPNMLLSEEETES", "note": "[I113A]", "effect of a mutation on the interaction": "disrupting interaction strength"}
    ]}
  ]
}
